The source of these data is publication doi:10.1101/2021.06.17.448816 (bioRxiv, 2021).

What all share (details): both partners purified
Test [1] deals with T1, Pol α catalytic subunit (334-1462), as in the truncated human primosome (human, UniProt P09884 334-1462).
T1 construct: also called DNA polymerase α; catalytic subunit of Pol α
T1 sequence (looked up): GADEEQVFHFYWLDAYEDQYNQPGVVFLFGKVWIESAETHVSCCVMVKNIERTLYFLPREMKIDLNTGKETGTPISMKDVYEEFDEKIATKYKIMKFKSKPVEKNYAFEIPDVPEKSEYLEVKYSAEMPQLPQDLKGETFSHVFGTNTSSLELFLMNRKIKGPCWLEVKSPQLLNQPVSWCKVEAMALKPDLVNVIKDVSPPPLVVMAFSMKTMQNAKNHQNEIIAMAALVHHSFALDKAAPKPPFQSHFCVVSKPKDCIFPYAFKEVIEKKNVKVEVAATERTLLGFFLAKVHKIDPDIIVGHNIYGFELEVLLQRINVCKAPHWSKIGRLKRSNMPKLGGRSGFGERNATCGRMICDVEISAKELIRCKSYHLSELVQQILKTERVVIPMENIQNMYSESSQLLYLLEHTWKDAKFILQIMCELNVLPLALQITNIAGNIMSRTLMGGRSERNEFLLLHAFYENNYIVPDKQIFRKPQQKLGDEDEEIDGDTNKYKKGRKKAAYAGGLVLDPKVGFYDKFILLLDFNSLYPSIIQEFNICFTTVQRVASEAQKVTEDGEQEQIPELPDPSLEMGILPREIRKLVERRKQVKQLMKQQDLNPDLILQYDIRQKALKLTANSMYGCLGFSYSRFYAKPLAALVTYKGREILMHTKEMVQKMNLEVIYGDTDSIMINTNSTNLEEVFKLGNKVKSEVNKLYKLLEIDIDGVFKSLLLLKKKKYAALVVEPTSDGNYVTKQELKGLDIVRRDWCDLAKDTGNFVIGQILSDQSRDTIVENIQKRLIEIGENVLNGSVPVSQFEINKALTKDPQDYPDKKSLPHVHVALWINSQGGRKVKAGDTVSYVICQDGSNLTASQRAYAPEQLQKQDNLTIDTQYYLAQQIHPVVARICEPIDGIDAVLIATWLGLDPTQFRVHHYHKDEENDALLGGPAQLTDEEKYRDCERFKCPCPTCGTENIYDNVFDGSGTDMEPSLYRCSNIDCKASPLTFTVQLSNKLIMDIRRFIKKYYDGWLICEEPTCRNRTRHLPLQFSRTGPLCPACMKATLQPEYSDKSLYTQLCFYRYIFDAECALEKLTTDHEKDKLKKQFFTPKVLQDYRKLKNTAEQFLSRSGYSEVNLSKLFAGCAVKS
Put plainly: […]) in 25 mM HEPES pH 7.2, 150 mM KCl, 1 mM DTT; […].

Test [2] deals with T2, Truncated human primosome (Pol α: 334-1462; B subunit: 149-598; PriS: 1-420; PriL: 1-509) (human, UniProt P09884 334-1462; Q14181 149-598; P49642 1-420; P49643 1-509).
T2 construct: also called truncated primosome; Pol α - primase
The description is as above.

The target in test [3] is T2, Truncated human primosome (Pol α: …). In words: pull-down.
Test [4] has as its target T3, Full-length human primosome (Pol α: 1-1462; B subunit: 1-598; PriS: 1-420; PriL: 1-509) (human, UniProt P09884 1-1462; Q14181 1-598; P49642 1-420; P49643 1-509).
T3 construct: also called DNA polymerase α - primase complex; Pol α - primase
In words: pull-down.

T2 sequence (Q14181 149-598, chain 2 of 3): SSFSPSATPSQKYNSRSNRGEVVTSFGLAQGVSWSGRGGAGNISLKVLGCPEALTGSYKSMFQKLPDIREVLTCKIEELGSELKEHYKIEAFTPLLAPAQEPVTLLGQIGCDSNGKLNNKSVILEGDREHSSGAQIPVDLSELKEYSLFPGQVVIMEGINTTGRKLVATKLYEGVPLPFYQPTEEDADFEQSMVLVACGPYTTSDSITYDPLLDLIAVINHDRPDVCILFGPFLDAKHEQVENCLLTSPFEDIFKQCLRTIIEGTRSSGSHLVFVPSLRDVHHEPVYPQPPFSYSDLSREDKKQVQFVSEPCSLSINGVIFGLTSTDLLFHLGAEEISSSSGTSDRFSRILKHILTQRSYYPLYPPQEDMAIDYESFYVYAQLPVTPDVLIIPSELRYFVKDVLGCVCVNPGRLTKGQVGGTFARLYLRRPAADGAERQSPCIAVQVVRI
T2 sequence (P49642 whole entry, chain 3 of 3, the tested form may be a part): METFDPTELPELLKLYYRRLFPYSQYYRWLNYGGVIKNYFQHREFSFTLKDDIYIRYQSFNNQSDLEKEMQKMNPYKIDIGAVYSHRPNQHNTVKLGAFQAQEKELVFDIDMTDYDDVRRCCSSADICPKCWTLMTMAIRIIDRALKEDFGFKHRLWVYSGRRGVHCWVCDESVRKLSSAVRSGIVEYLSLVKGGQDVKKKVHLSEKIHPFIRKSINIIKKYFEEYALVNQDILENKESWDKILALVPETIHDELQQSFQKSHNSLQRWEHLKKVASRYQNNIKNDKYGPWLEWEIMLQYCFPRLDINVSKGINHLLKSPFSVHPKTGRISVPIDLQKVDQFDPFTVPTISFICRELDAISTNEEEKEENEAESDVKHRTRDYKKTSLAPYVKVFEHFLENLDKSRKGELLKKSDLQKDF
T2 sequence (P49643 whole entry, chain 4 of 3, the tested form may be a part): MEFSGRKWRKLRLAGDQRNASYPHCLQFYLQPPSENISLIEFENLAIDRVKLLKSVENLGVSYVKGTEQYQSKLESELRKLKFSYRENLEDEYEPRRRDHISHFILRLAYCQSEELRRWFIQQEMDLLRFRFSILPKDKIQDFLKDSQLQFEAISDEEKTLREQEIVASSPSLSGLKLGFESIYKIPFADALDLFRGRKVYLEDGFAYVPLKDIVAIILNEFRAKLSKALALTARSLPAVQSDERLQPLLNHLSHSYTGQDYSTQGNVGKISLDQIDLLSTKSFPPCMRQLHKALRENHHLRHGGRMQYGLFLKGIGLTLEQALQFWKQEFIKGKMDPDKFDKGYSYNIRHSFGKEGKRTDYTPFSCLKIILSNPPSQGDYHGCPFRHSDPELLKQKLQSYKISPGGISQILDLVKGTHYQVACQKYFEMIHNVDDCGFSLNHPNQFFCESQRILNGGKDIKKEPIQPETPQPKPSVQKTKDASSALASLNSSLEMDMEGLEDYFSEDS
T3 sequence (Q14181 whole entry, chain 2 of 3): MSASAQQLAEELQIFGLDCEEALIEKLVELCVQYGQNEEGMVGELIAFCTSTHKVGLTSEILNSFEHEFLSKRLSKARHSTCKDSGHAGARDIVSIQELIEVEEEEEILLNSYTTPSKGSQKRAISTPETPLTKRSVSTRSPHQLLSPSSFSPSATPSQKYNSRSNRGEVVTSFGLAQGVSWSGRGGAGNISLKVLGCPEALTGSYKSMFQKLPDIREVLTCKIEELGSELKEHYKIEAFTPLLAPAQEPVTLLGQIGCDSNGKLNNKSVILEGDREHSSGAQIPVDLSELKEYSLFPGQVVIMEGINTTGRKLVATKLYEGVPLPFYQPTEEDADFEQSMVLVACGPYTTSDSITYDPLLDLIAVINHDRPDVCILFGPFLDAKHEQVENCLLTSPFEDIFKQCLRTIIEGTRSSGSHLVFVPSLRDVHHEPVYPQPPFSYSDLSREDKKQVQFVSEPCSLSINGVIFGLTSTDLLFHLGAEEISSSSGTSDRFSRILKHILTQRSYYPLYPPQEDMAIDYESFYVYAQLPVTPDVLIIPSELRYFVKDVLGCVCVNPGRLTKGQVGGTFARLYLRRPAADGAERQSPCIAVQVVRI
T3 sequence (P49642 whole entry, chain 3 of 3): as the sequence (P49642 whole entry, chain 3 of 3, the tested form may be a part) above
T3 sequence (P49643 whole entry, chain 4 of 3): as the sequence (P49643 whole entry, chain 4 of 3, the tested form may be a part) above

B1: SARS-CoV nsp1 (13-127), His6-MBP tag cleaved (domain or fragment)
chain: HVQLSLPVLQVRDVLVRGFGDSVEEALSEAREHLKNGTCGLVELEKGVLPQLEQPYVFIKRSDALSTNHGHKVVELVAEMDGIQYGRSGITLGVLVPHVGETPIAYRNVLLRKNG
B1: the binding result in test [1] and in test [2] was “binds” each time.

B2: SARS-CoV nsp1 middle domain (13-127), His6-MBP fusion (domain or fragment)
chain: HVQLSLPVLQVRDVLVRGFGDSVEEALSEAREHLKNGTCGLVELEKGVLPQLEQPYVFIKRSDALSTNHGHKVVELVAEMDGIQYGRSGITLGVLVPHVGETPIAYRNVLLRKNG
Regarding B2, in test [3], the binding result is recorded as “binds”.

B3: MBP-tagged SARS-CoV nsp1 (full-length, His6-MBP fusion) (natural protein)
chain: MESLVLGVNEKTHVQLSLPVLQVRDVLVRGFGDSVEEALSEAREHLKNGTCGLVELEKGVLPQLEQPYVFIKRSDALSTNHGHKVVELVAEMDGIQYGRSGITLGVLVPHVGETPIAYRNVLLRKNGNKGAGGHSYGIDLKSYDLGDELGTDPIEDYEQNWNTKHGSGALRELTRELNGG
B3: the binding result in test [4] and in test [3] was “binds” each time.

B4: SARS-CoV-2 nsp1 middle domain (13-127), His6-MBP fusion (domain or fragment)
chain: HVQLSLPVLQVRDVLVRGFGDSVEEVLSEARQHLKDGTCGLVEVEKGVLPQLEQPYVFIKRSDARTAPHGHVMVELVAELEGIQYGRSGETLGVLVPHVGEIPVAYRKVLLRKNG
In the case of B4, the binding result in test [3] is “binds”.
